From PMC11067741, “Crystal structure of human peptidylarginine deiminase type VI (PAD6) provides insights into its inactivity” (IUCrJ, 2024)

Target: the molecule itself
Experiment: SEC; analytical SEC on Superdex 200 increase 5/150GL, 20 mM Tris-HCl pH 7.5, 200 mM NaCl, 1 mM TCEP; PAD6 at 1 mg/ml, 0.3 ml/min; calibrated with protein standards

B1: recombinant human peptidylarginine deiminase type VI (PAD6) V2-P694 S10E S446E (enzyme, UniProt Q6TGC4 2-694, looked up)
chain: VSVEGRAMEFQSIIHLSLDSPVHAVCVLGTEICLDLSGCAPQKCQCFTIHGSGRVLIDVANTVISEKEDATIWWPLSDPTYATVKMTSPSPSVDADKVSVTYYGPNEDAPVGTAVLYLTGIEVSLEVDIYRNGQVEMSSDKQAKKKWIWGPSGWGAILLVNCNPADVGQQLEDKKTKKVIFSEEITNLSQMTLNVQGPSCILKKYRLVLHTSKEESKKARVYWPQKDNSSTFELVLGPDQHAYTLALLGNHLKETFYVEAIAFPSAEFSGLISYSVSLVEESQDPSIPETVLYKDTVVFRVAPCVFIPCTQVPLEVYLCRELQLQGFVDTVTKLSEKSNSQVASVYEDPNRLGRWLQDEMAFCYTQAPHKTTSLILDTPQAADLDEFPMKYSLSPGIGYMIQDTEDHKVASMDSIGNLMVSPPVKVQGKEYPLGRVLIGSSFYPEAEGRAMSKTLRDFLYAQQVQAPVELYSDWLMTGHVDEFMCFIPTDDKNEGKKGFLLLLASPSACYKLFREKQKEGYGDALLFDELRADQLLSNGREAKTIDQLLADESLKKQNEYVEKCIHLNRDILKTELGLVEQDIIEIPQLFCLEKLTNIPSDQQPKRSFARPYFPDLLRMIVMGKNLGIPKPFGPQIKGTCCLEEKICCLLEPLGFKCTFINDFDCYLTEVGDICACANIRRVPFAFKWWKMVP
notes: human peptidylarginine deiminase type VI (PAD6), residues V2-P694, called a full-length construct, with the phosphomimetic mutations S10E and S446E; also called phosphomimetic PAD6; human PAD6 phosphomimic mutant; source: HEK cells, transient transfection, purified (glutathione Sepharose, TEV cleavage, reverse HisTrap, Superdex 200); not shown: His6, N-terminal, cleaved; GST, N-terminal, cleaved
With B1 the “stoichiometry N” value was 2.
